T1: C2 (Homo sapiens, UniProt P06681)
T1 construct: from tissue
T1 sequence (P06681 21-752): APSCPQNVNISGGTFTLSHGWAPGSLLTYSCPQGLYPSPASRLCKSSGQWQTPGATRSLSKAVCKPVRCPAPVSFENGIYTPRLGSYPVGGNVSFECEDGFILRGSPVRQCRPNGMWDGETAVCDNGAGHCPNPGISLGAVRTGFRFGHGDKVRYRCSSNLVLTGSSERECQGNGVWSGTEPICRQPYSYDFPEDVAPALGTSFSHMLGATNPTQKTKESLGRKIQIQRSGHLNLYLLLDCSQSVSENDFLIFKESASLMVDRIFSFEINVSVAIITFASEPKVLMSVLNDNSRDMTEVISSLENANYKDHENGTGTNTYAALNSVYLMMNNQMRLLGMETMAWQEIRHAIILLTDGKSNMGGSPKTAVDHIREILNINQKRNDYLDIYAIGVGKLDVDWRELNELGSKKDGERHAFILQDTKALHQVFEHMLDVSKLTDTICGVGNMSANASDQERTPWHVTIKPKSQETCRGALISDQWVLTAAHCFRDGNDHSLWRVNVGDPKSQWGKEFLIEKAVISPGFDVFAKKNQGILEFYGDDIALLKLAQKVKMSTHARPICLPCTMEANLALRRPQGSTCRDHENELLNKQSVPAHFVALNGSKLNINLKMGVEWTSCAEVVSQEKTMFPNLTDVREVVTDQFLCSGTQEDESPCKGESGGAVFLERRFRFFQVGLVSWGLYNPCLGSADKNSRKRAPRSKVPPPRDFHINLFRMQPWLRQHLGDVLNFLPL

T2: C1-inhibitor (Homo sapiens, UniProt P05155)
T2 construct: Purification of C1-inh and Alpha-2-Macroglobulin; from tissue
T2 sequence (P05155 23-500): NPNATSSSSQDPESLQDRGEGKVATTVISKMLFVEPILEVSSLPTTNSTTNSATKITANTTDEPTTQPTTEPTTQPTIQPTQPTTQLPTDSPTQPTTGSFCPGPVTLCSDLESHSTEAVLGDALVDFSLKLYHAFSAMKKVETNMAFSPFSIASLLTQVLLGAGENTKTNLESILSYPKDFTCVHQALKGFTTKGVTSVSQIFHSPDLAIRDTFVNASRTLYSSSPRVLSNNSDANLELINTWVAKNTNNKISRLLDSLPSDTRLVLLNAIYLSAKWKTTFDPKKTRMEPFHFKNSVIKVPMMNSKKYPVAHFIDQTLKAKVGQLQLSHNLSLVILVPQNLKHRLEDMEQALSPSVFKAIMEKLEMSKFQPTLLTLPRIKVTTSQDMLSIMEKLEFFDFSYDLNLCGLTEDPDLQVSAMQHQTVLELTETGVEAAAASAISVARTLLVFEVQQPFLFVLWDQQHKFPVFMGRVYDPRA

B1: MASP-2 CCP-SP: E. coli-expressed, refolded human MASP-2 CCP2-SP fragment, Ala-Ser-Met-Thr tag followed by Ile363, ending Phe686 (protein)
chain 1: ASMTIVDCGPPDDLPSGRVEYITGPGVTTYKAVIQYSCEETFYTMKVNDGKYVCEADGFWTSSKGEKSLPVCEPVCGLSARTTGGR
chain 2: IYGGQKAKPGDFPWQVLILGGTTAAGALLYDNWVLTAAHAVYEQKHDASALDIRMGTLKRLSPHYTQAWSEAVFIHEGYTHDAGFDNDIALIKLNNKVVINSNITPICLPRKEAESFMRTDDIGTASGWGLTQRGFLARNLMYVDIPIVDHQKCTAAYEKPPYPRGSVTANMLCAGLESGGKDSCRGDSGGALVFLDSETERWFVGGIVSWGSMNCGEAGQYGVYTKVINYIPWIENIISDF
B2: MASP-2γB: E. coli-expressed, refolded human MASP-2 CCP1-CCP2-SP fragment, Thr287 to Phe686, Ala-Ser-Met tag; purified form starts with Ile291 (protein)
chain 1: IHYTSTAQPCPYPMAPPNGHVSPVQAKYILKDSFSIFCETGYELLQGHLPLKSFTAVCQKDGSWDRPMPACSIVDCGPPDDLPSGRVEYITGPGVTTYKAVIQYSCEETFYTMKVNDGKYVCEADGFWTSSKGEKSLPVCEPVCGLSARTTGGR
chain 2: IYGGQKAKPGDFPWQVLILGGTTAAGALLYDNWVLTAAHAVYEQKHDASALDIRMGTLKRLSPHYTQAWSEAVFIHEGYTHDAGFDNDIALIKLNNKVVINSNITPICLPRKEAESFMRTDDIGTASGWGLTQRGFLARNLMYVDIPIVDHQKCTAAYEKPPYPRGSVTANMLCAGLESGGKDSCRGDSGGALVFLDSETERWFVGGIVSWGSMNCGEAGQYGVYTKVINYIPWIENIISDF
B3: MASP-2 SP: E. coli-expressed, refolded human MASP-2 serine protease domain, Ala-Ser-Met-Thr tag followed by Pro432, ending Phe686 (protein)
chain 1: ASMTPVCGLSARTTGGR
chain 2: IYGGQKAKPGDFPWQVLILGGTTAAGALLYDNWVLTAAHAVYEQKHDASALDIRMGTLKRLSPHYTQAWSEAVFIHEGYTHDAGFDNDIALIKLNNKVVINSNITPICLPRKEAESFMRTDDIGTASGWGLTQRGFLARNLMYVDIPIVDHQKCTAAYEKPPYPRGSVTANMLCAGLESGGKDSCRGDSGGALVFLDSETERWFVGGIVSWGSMNCGEAGQYGVYTKVINYIPWIENIISDF
B4: CCP1-CCP2-SP: E. coli-expressed, refolded human C1r CCP1-CCP2-SP fragment, amino acids 309-705, N-terminal Ser-Thr-Gln-Ala (protein)
chain 1: STQACPQPKTLDEFTIIQNLQPQYQFRDYFIATCKQGYQLIEGNQVLHSFTAVCQDDGTWHRAMPRCKIKDCGQPRNLPNGDFRYTTTMGVNTYKARIQYYCHEPYYKMQTRAGSRESEQGVYTCTAQGIWKNEQKGEKIPRCLPVCGKPVNPVEQRQR
chain 2: IIGGQKAKMGNFPWQVFTNIHGRGGGALLGDRWILTAAHTLYPKEHEAQSNASLDVFLGHTNVEELMKLGNHPIRRVSVHPDYRQDESYNFEGDIALLELENSVTLGPNLLPICLPDNDTFYDLGLMGYVSGFGVMEEKIAHDLRFVRLPVANPQACENWLRGKNRMDVFSQNMFCAGHPSLKQDACQGDSGGVFAVRDPNTDRWVATGIVSWGIGCSRGYGFYTKVLNYVDWIKKEMEEED
B5: CCP2-SP: E. coli-expressed, refolded human C1r CCP2-SP fragment, amino acids 376-705, N-terminal Ser-Thr-Gln-Ala (protein)
chain 1: STQACGQPRNLPNGDFRYTTTMGVNTYKARIQYYCHEPYYKMQTRAGSRESEQGVYTCTAQGIWKNEQKGEKIPRCLPVCGKPVNPVEQRQR
chain 2: IIGGQKAKMGNFPWQVFTNIHGRGGGALLGDRWILTAAHTLYPKEHEAQSNASLDVFLGHTNVEELMKLGNHPIRRVSVHPDYRQDESYNFEGDIALLELENSVTLGPNLLPICLPDNDTFYDLGLMGYVSGFGVMEEKIAHDLRFVRLPVANPQACENWLRGKNRMDVFSQNMFCAGHPSLKQDACQGDSGGVFAVRDPNTDRWVATGIVSWGIGCSRGYGFYTKVLNYVDWIKKEMEEED

What was measured:
C2 = biological target: T1, C2; assay: C2 cleavage by MASP fragments; type: biochemical; conditions: 37° C., pH 7.4; averages of 2 to 4 experiments, standard errors
Protocol: (§1) C2, C3, C3(NH3), C4 cleavage—Serial dilutions of MASP-1 and MASP-2 fragments ranging between concentrations of 1 μM and 10 pM were incubated at 37° C. in 20 mM HEPES, 140 mM NaCl, pH 7.4 with C2, C3, C3(NH3) or C4 at typical concentrations of 0.5-1 μM. The cleavage was followed by SDS-PAGE under reducing conditions. Desirable concentrations of the MASP fragments for further detailed kinetic analysis were chosen to be where half of the protein substrates were hydrolyzed during the first 20 minutes of incubation. The protein substrates C2, C3, C3(NH3) or C4 were then incubated with the selected concentrations of the MASP fragments at 37° C. in 20 mM HEPES, 140 mM NaCl, pH 7.4. Typically 11-13 samples were taken at varying time periods but always within 50 minutes from the beginning of the reaction. Cleavages rates were quantified by measuring the diminution of the cleaved chain visualized by Coomassie stained SDS-PAGs using a GEL DOC 1000 instrument and Molecular Analyst Software for densitometric calculations (Bio-Rad, Hercules, Calif., USA). The reactions were assumed to be of the Michaelis-Menten type. In the case of C3 and C3(NH3) cleavage a further reasonable assumption of KM>>[substrate] was made. The constants KM, kcat and KM/kcat were estimated by unbiased non-linear regression methods regressing the data on the following equations: t=([S0]−[S]+KMln([S0]/[S]))/(kcat[E0]) or in the case of C3 and C3(NH3) cleavage on [S]=[S0]exp(−t[E0]kcat/KM).

C4 = C4 cleavage by MASP fragments; type: biochemical, human; conditions: for C4 kcat: 37° C., pH 7.4, averages of 2 to 4 experiments, standard errors
Protocol: as §1

C1-inhibitor = biological target: T2, C1-inhibitor; assay: Rate of SDS stable complex formation of 125I-labelled MASP fragments with C1-inhibitor; type: biochemical
Protocol: To assess the rate of SDS stable complex formation between the MASP-1 and MASP-2 CCP1-CCP2-SP fragments and C1-inhibitor, the ^125I-labelled MASP fragments at concentrations ranging between 30-100 nM were incubated with 100-350 nM C1-inhibitor at 37° C. in 20 mM HEPES, 140 mM NaCl, pH 7.4 for 40 minutes. Typically 11-13 samples were taken at varying time periods. The reactions were stopped by reducing sample buffer containing 0.125 M Tris, 4.8% SDS, 8 M urea 20% glycerol, 720 mM mercaptoethanol, 0.02% bromophenol blue, pH6.8. The samples were further incubated at 37° C. for 30 minutes and run on reducing SDS-PAGE. Cleavages rates were visualized by means of autoradiography and the diminution of the reacted MASP chain was quantified using a GEL DOC 1000 instrument and Molecular Analyst Software for densitometric calculations (Bio-Rad, Hercules, Calif., USA). The kinetic constants were calculated assuming irreversible inhibition proceeded by reversible enzyme-inhibitor complex formation. Using steady-state approximation and neglecting the starting enzyme concentration compared to the starting inhibitor concentration ([I0]>>[E0]) the data was regressed on the following equation using non-linear regression methods: [E]=[E0]exp(−kobst); kobs=k2[I0]/(Ki+[I0]), where kobs is the observed pseudo-first order rate of reaction, k2 is the rate of irreversible enzyme-inhibitor complex formation and Ki is the inhibitory constant.

live C3 = biological target: T3, live C3 (Homo sapiens, UniProt P01024); assay: Cleavage of live C3 by MASP fragments, SDS-PAGE densitometry; type: biochemical; conditions: control experiment
T3 construct: was isolated from fresh human serum; from tissue; host or cells: fresh human serum
Protocol: as §1, with “The constants KM, kcat and KM/kcat were estimated by unbiased non-linear regression methods regressing the data on the following equations: t=([S0]−[S]+KMln([S0]/[S]))/(kcat[E0]) or in the case of C3 and C3(NH3) cleavage on [S]=[S0]exp(−t[E0]kcat/KM).” left out

C3(NH3) = biological target: T4, C3(NH3) (Homo sapiens, UniProt P01024); assay: Cleavage of dead C3, C3(NH3), by MASP fragments, SDS-PAGE densitometry; type: biochemical; conditions: control experiment
T4 construct: was isolated from fresh human serum; from tissue; host or cells: fresh human serum, then amidolysis with ammonium hydrogen carbonate
Protocol: Amidolysis of C3 The intact thiol ester bond in ‘live’ C3 was cleaved using ammonium salt as the nucleophile to obtain ‘dead’ C3(NH3), according to Soames and Sim (1997) with modifications. C3 was incubated with a final concentration of 0.2 M ammonium hydrogen carbonate for 90 min at 37° C., making sure that the final pH of the reaction was above 8.0. At the end of the incubation, the reaction was collected with a brief centrifugation (5 min, 8000 g, RT) and dialyzed against 20 mM HEPES, 140 mM NaCl, pH 7.4.
C2, C3, C3(NH3), C4 cleavage—Serial dilutions of MASP-1 and MASP-2 fragments ranging between concentrations of 1 μM and 10 pM were incubated at 37° C. in 20 mM HEPES, 140 mM NaCl, pH 7.4 with C2, C3, C3(NH3) or C4 at typical concentrations of 0.5-1 μM. The cleavage was followed by SDS-PAGE under reducing conditions. Desirable concentrations of the MASP fragments for further detailed kinetic analysis were chosen to be where half of the protein substrates were hydrolyzed during the first 20 minutes of incubation. […] Cleavages rates were quantified by measuring the diminution of the cleaved chain visualized by Coomassie stained SDS-PAGs using a GEL DOC 1000 instrument and Molecular Analyst Software for densitometric calculations (Bio-Rad, Hercules, Calif., USA). […]

[1] = Differential scanning calorimetry of C1r fragments; type: physicochemical; conditions: 20 mM Tris pH 8.3, 145 mM NaCl, 0.1 mg/ml, 1° C./min
Protocol: Calorimetric measurements were performed on a VP-DSC (Microcal Inc, Northampton, Mass.) differential scanning calorimeter. Denaturation curves were recorded between 10 and 80° C. at a pressure of 2.5 atm, using a scanning rate of 1° C./min. The protein concentration was set to 0.1 mg/ml. Samples were dialyzed against 20 mM Tris pH 8.3 145 mM NaCl, and the dialysis buffer was used as a reference. Heat capacities were calculated as outlined by Privalov (16).

T4 sequence (P01024 672-1663 limits assumed): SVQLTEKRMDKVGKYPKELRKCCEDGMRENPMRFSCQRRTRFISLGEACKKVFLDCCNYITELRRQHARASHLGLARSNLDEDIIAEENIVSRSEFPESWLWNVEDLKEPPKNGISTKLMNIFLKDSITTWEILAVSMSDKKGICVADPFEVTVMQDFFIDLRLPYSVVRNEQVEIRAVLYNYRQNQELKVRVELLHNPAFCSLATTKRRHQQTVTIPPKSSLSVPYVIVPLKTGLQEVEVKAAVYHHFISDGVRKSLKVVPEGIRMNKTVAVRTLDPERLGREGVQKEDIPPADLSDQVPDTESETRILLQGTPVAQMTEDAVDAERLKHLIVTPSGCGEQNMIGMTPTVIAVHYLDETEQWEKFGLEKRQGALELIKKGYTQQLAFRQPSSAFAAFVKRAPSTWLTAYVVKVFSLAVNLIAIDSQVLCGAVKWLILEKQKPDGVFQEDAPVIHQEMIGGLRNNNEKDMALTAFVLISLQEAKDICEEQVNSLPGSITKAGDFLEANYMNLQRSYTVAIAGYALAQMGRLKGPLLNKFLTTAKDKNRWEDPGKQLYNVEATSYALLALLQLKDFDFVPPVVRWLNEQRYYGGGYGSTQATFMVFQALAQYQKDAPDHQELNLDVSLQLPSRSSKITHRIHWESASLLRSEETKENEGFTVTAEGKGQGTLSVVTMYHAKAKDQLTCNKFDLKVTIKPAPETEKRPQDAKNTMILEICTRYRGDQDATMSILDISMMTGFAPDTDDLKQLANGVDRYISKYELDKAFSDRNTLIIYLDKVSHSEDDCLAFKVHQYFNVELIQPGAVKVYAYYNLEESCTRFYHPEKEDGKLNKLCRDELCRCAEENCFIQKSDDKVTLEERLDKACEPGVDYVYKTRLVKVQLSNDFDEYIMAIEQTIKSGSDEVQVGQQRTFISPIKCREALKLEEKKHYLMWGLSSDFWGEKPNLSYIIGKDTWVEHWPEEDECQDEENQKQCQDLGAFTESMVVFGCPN
T4 sequence (P01024 23-667 partner limits assumed): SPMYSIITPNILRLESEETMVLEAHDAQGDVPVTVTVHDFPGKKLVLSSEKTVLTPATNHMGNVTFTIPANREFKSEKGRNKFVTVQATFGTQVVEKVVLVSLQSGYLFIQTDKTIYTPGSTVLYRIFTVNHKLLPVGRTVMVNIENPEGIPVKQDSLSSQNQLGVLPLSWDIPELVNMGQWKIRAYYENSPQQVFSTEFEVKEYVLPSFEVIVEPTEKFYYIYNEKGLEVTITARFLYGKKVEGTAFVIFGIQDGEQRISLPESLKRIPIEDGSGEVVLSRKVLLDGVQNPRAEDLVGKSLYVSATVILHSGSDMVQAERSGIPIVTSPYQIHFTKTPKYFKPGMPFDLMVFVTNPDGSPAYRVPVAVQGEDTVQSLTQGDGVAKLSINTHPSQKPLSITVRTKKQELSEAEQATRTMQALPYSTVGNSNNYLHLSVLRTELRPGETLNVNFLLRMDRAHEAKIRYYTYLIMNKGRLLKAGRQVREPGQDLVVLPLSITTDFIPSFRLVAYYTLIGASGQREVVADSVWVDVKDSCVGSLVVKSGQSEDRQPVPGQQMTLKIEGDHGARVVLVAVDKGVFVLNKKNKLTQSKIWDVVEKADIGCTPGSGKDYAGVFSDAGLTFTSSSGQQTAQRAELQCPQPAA
T3 sequence (P01024 672-1663 limits assumed): as the sequence (P01024 672-1663 limits assumed) above
T3 sequence (P01024 23-667 partner limits assumed): as the sequence (P01024 23-667 partner limits assumed) above

Molecule	C2 kcat (C2)	C4 kcat (C4)	DSC melting / unfolding transition temperature [1]	further results
B1	3.0 ± 2.2 s⁻¹	2.0 ± 1.0 s⁻¹	–	increase in the kcat/KM value of C4 cleavage by presence of the CCP2 domain (C4; relative to MASP-2 SP domain alone): 44 fold
B2	1.9 ± 0.8 s⁻¹	0.9 ± 0.4 s⁻¹	–	Ki values for the C1-inhibitor reaction, in words (C1-inhibitor): in the nanomolar range; k2, rate of irreversible enzyme-inhibitor complex formation with C1-inh (C1-inhibitor; 37° C., pH 7.4): 0.008 s⁻¹; Ki (C1-inhibitor; 37° C., pH 7.4, read-out: Ki, reaction with C1-inh): 8.8 nM; kobs, pseudo-first order rate of reaction with C1-inh (C1-inhibitor; [C1-inh] = 350 nM, 37° C., pH 7.4): 0.0078 s⁻¹
B3	3.9 ± 3.0 s⁻¹	0.20 ± 0.06 s⁻¹	–	–
B4	–	–	57.5 °C	cleavage of 'live' C3, in words (live C3): no cleavages; cleavage of 'dead' C3, in words (C3(NH3)): no cleavages
B5	–	–	55.4 °C	–

From US8173397B2, “Folded recombinant catalytic fragments of multidomain serine proteases, preparation and uses thereof” (TargetEx Kft., priority 2002, dated 2012)
